Laboratory results: the DeepSol protein solubility set

assay: soluble on expression in E. coli; label from the status in PepcDB or PDB records

Sequence	soluble on expression in E. coli
MPVAVMADNAFSFRKLLDQCENQELEAPGGIATPPVYGQLLALYLLQNDMNNARYLWKRIPPAIKSANSELGGIWSVGQRIWQRDFPGIYTTINAHQWSETVQPIMEALRDATRRRAFALVSQAYTSIIADDFAAFVGLPVEEAVKGVLEQGWQADSTTRMVLPRKPAPGALDVSLNRFIPLSEPAPVPPIPNEQQLARLTDYVAFLEN	not soluble
MPVNNENLTSVLDARPFELSEEQKSPLFKANLLAELVHHYQCNEMYRKFCQKNKFDPLVFDGEVADIPPIPVHIFKAIGHKLSSVSDDTIKAKLQSSATSGVPSTILLDKVTARRQTRAMARVMQEVLGPKRRPFCIMDIDPTSPNATNLGARIAAVKGYLNFASTSKYFIDADSPSAPLEFLEQKFVEHLNSLASEEPLIIFGFTFVLYHTVFKTLKDKGISFQLPKGSQVIHIGGWKKLESEKVDKITFNRDIASVLGISPDDVVDIYGFTEQMGLNYPDCKAGWKHIHAYSDVIIRDESNLEVCGPGKVGLLEFVSPLPHSYPGNVVLTDDLGVIEESLCECGKAGKRFKVIGRAKKAEVRGCGDVMSEKLTKKPSYKPLSQQEERLTIYHSPIFLEHHHHHH	not soluble
MPWWEQNIGMGGGALSAKQQTSADSRTESLQSLSDERRDFIQKSLDAWCANLGYKDSTVNMLTLSRTLCISKDELSVFFDQYLKTTFRIWLGDIRFNAAKKMMLEFPDYSNDIISAECGFSARTYLYRIFKSKEGCTPTEWREEQVANAAPDDKKQD	not soluble
MPYKEKDIEKKYFSIGEVSAMFKVAPSLIRFWETEFDIFKPQKNRRGNRQFTKEDIENFRLIYNLVKERGYTLQGAKEMLKVDRHKSKDKMELLDSLQKVRDFLVDLKKQME	not soluble
MQALNSISSLQTSASLFPVSLNSDVSANTSTSSKELKAVIDQLVQALTQSGQLDETSPLGKMLAKAMAADGKSANSIDDITASLDKLIHEKLGDNFGASAGIGAGGGGGGIGGAGSGSGVGGGLSSDAGAGQSDLMSQVLNGLGKAVLDDLLTPSGEGGTTFSSDDMPTLEKVAQFMDDNKAQFPTRDGGSWMNELKEDNGLDAQETAQFRSALDVIGQQLGQQQGDASGVTSGGGLGSPVSDSSLGNPAIDANTGPAANGNASVDVGQLIGQLIDRGLQSVSSGGGLGTPVDNSTQPTGGTPAANPTGNVSNQDLGQLLSGLLQRGLEATLQDAGNTGADLQSSAAQVAAQLINALLQGTNNQTNQAVALEHHHHHH	soluble
MQANAIDFENYELLQDDVCARRIVAAKQKLGKRAIILAHHYQRADVYCHADLTGDSLKLSYLAARTDTEFLVFCGVHFMAEVADILSSSEQTVILPDLSAGCSMADMANLTKVERVWRELAEVLDPDERVTPVTYINSSADLKAFCGQHDGIVCTSSNAVKILQWAFSRREKVLFFPDQHLGRWSGYKMGLSPDEMPVWDFDEPMGGLTPEQIEKARILLWKGHCSVHQMFQPQHILRFRNQYPDGLVISHPECSFEVCKASDYVGSTEYIINTIRAAKSGTRWLVGTELNLVGRIAEEFKAEGKIIQFMSPMVCMCSTMARIDPQHLAWSLENLAEGRVVNQIRVPEPQASLAKLTLEKMLEVSKLEHHHHHH	not soluble
MQAWIQQGLHGMQMGGRVGNYDQTFVVYGPVFLPNATQSKISEINYGGKILLPSSALNLLMQYNIPMPMLFKLTNMAVQRVTHCGVLEFSAPEGQAILPLWMMQQLGLDDGDTIRIESATLPKATFAKLKPMSLEFLNITNPKAVLEVELRKYACLTKNDRIPTSYAGQTLEFLVVDLKPANSVCIIECDVNLDFDPPEGYVEQPRQVTPAVTAKPPAPDASAFIGAGQKAGGSGGTGQNATSVFGGAGRRLDGKKKPSSSVSLSDGTGVSTSNAAPVANDLPAIPPVVVNEDYKPGRVSFLRYDYKRVDVLEKELREKEASKAGQPSNVFRGGNRTLRGAR	not soluble
MQDDPSTSPLTHSATLRRLLYEALDALGLDPTRVYRSVYRRIPLPPPTLGGRLVHDNAPLFWTELAAVTGDADIGLHLGEAMKPRLLDVVGYLLLSARDLEEALRSFVRFQHILSGGFAARLEVEGETARLILDINYLGYASLRQQIECLMLLFLKLLALISDDEFVAERIEFRHRAPPRLGEHRRLFGRLPLFSRPHDALVFSAALLRRPSRNANPDMHDVLTRHAEEQSRELSENRLLNRVRYLIELRLGEGYGLRQCAAELGLGSGALQRALAAGGASFRQVRDEVRRQRASEMLLAGRAIREVAKACGFAELSPFYRAFRRWHAAPPEQYRARLAKREEGYSTSGT	not soluble
MQDEFYMARALKLAQRGRFTTHPNPNVGCVIVNNGDIVGEGYHHRAGEPHAEVHALRMAGAKAKGATAYVTLEPCSHHGRTPPCCDALIAAGVARVVAAMQDPNPQVAGRGLYRLQQAGIAVSHGLMMSEAEALNKGFLKRMRTGFPYLQLKLGASVDGRTAMASGESQWITSPQARRDVQRLRAQSHAILTSSATVLADDPALTVRWAELDASTQASYPQENLRQPVRIVIDSQNRVTPAHRIVQQPGETWIARTQEDSRAWPDAVRTISVPAHNGHLDLVVLMMQLGRQQINSIWVEAGPGLAGALLQAGLVDELIVYVAPKLLGTQARGLCELPGLEKLADAPQFTFSEIRHVGPDVCLHMVSA	soluble
MQDEKNFMSGVKENLDVLFTKLEKFLRTETVIGQPIKVGETTLIPIVTVMFGCGTGGGVGDNKGIKGQGGGLGTGARISPDAVLVIKNDDVQMLPVKKGANLSKLIEMVPEIVSKIKIDKENKEKEEVKKEENLEHHHHHH	soluble
MQDKYGVNHDHYCYESSDVLINLLNIRDPDELTQAEADFNLIRYSEYCSDLDELEDFDSNHFLNLHWVLFQDIYEWAGTIRDVDISKANTRFCTCSRVEPELNKAISRIPLIRFCRNKHELVALVADIFSDLNVVHPFREGNGRTTRFFFEELLHVAGYRIEWPVITKEEWVDANIHGYFGQLHKLEVIFDAAIIESLEHHHHHH	not soluble
MQDQVIICDLDNTIFDTSSIDPELFASLLHKATEYLSGSFTAEIILSIIQDIVSNPFDRVCEKYGLPKSMILPVLDELNGISLEHSAMVPYEDYAAFRAIPAYKILVTTGFKRLQEEKLRKLQIRQDFDRIIINDPVYANSSKLDIFRELSRELDLKDRKTYVVGDDPASEIKAGRELGFTTVLMVRKEYLSNSYTDYIISSFEGLRDLLRDNMENDYALRK	soluble
MQDTLPIHFAPLQGYTEAIYRNAHDAFFGGVDTYYTPFVRLEKGNFRRRDVRGIEPENNGVPHLIPQLIASSAEKAEVILSLFIEKGYQEVDINLGCPFPLLAKRHNGSGILPYPEEVKALLSIVTRYPQISFSVKMRLGWEQPDECLALAPILNDLPLRQITMHPRLGKQGYKGEVDLQGFSAFREVCQLPLVYNGDIHNLEDIQRISTQFPSLAGIMIGRGLLANPALALEYKENRTLAPDEMRDRLKSMHKSVYNNYDVLLEGGEGQLLTKMKTFWEYLAPQTDRKVLKAIHKSTNISKYYQAVSAFFNQR	not soluble
MQEESYYNLTVGDTHDRLHNFQITVDTDYRNFVQLVNTMRSPNIAQQDRAFLQLQQLGLQHPDYIRKARVPETMRQFAEGAAGKRRIRSCHGTYLHWYDEGLKVDMKSGEAGTCENWIIEDWNEKVVFRAVDPRGKYLRACLGSNQLTLVYIPEPTELWSPFENGNGTWSFLSSNGTWLSAHEDGQVCTVKDRQACEEFLLESW	not soluble
MQFLHILLLSILSLIFISSVQAVPSDQDIEALMGLQDQVNAFLGESNMSPEAKKKIEDMMAKKQAAIENSLGRK	soluble
MQFSCSIPLPATFRPGDILAFHRRDRQEIAERVNHASVQKAMIWCGAPAYLSISFEPGLAKASLVIDGKIAEDRQPIFEGMVRRMLGLTQEIEIFEERYRDHPQLGILIAQQPGLRVPVTATPFEALTWAVTGQQISVNAAVSLRRKLIGATNTPHSCGLFCYPDARRILELPEETLRQAGFSTTKTRTLLALSALVADNELPLDAWVETLPVDVIREKLEAVRGIGPWTVNYGLLRGFGWLDGSLHGDAAVRRGLQALLGAQDKISEENTKVWLAQFSPWRALVGAHLWAAPVAIALEHHHHHH	not soluble
MQGQHPPAELPSLRRQKILLLLERDGKVMAAELSRHFAVSEDTIRRDLAELDAGGLVQRVHGGALPRPKDSGKDYFTRVGETNEAKLRLAQYAVQWVQDGQTVLFDSGSTTLHIAQSLPAGISLTAVTASPMIAVALAEYPKVRVILAGGQLNPATLSASGHEALRMIQGIKADLMFTGVCAIHPEIGISSLHFDEVPIKQAMFDSASEVIAVTTADKLGAMEPFVVVPCNRLHRLVTEQEAPGVDIEGYRQLGIEVLQVLEHHHHHH	not soluble
MQIKLPKPFFFEEGKRAVLLLHGFTGNSSDVRQLGRFLQKKGYTSYAPQYEGHAAPPDEILKSSPFVWFKDALDGYDYLVEQGYDEIVVAGLSLGGDFALKLSLNRDVKGIVTMCAPMGGKTEGAIYEGFLEYARNFKKYEGKDQETIDNEMDHFKPTETLKELSEALDTIKEQVDEVLDPILVIQAENDNMIDPQSANYIYDHVDSDDKNIKWYSESGHVITIDKEKEQVFEDIYQFLESLDWSE	not soluble
MQKESQTYKIAPAERLASVSEYYFSKKLKEVAQMNAEGKDVISLGIGSPDMPPSKVTIETLCNNAHDPNGHGYQPYVGIPELRKGFAAWYQRWYGVELNPNTEIQPLIGSKEGILHVTLAFVNPGEQVLVPNPGYPTYTSLSKILGAEVISYDLKEEDGWMPDFEALEKMDLNRVKLMWTNYPNMPTGANATPELYERLVDFARRKNIVIVNDNPYSFILNEKPISILSVPGAKECCIEFNSMSKSHNMPGWRIGMLASNAEFVQWILKVKSNIDSGMFRAMQLAAATALEAEADWYEGNNHNYRGRRHLAGEIMKTLGCTYDENQVGMFLWGKIPASCKDVEELTEKVLHQARVFITPGFIFGSNGARFIRISLCCKDAKLAEALERIKKLS	not soluble
MQKIDEKLQLMNTIAKIYRGSIKEFNNRLGKLMNLSYLDFSILKATSEEPRSMVYLANRYFVTQSAITAAVDKLEAKGLVRRIRDSKDRRIVIVEITPKGRQVLLEANEVLRNLVNEMLSDVENVEELLEGLNKILSRIGSSKD	soluble
MQKVRLIVSGRVQGVGFRYATHTLALDIGDIYGRVWNNNDGTVEILAQSKDSDKIATFIQEVRKGPSKWAKVTYVDVTMANFEDFQDFQIGK	not soluble
MQKWIGIMGIIFILTGCKMSEAPTNLMEAPANEKWINELKEQIDKDLPVNYRLLTPMSNKDKQMIWSMDFKQDNKKEAVIFYKLPNADHSVYLAVYEKNGNGWKTKSTHKFNGGDVDIVEVGDFTGNGKRELLIGISVDRESLKHVMYVFSEENEDMREIYNRNYTKLFIDDLNKNGLKDLSLVTYEKDEKLIVEFIEQFKTLSEASFDPFINSIQRIQMGRISKSLKAIVIDAGVGAHSGITYVAKFDENHYEVLPIDGKEDLFNEYVVESKDVNEDGIIEFVRTVRPKGWEDKPHGDSPLFERYIQWSESGIKPIEERYIDIEKGYYVKIPKELIGKITISDEQKESNSQKFLETSTNETWLEVHIFKRKEWFGIKGYSAAVKTASHVYAVPKQPHFEKVKAYVKPLADYQQE	not soluble
MQLNATFYSGTCPNASAIVRSTIQQALQSDTRIGASLIRLHFHDCFVNGCDASILLDDTGSIQSEKNAGPNVNSARGFNVVDNIKTALENACPGVVSCSDVLALASEASVSLAGGPSWTVLLGRRDSLTANLAGANSSIPSPIESLSNITFKFSAVGLNTNDLVALSGAHTFGRARCGVFNNRLFNFSGTGNPDPTLNSTLLSTLQQLCPQNGSASTITNLDLSTPDAFDNNYFANLQSNDGLLQSDQELFSTTGSSTIAIVTSFASNQTLFFQAFAQSMINMGNISPLTGSNGEIRLDCKKVNGS	soluble
MQLNETAVGEKVRISELKIENAMLKRRLLALGCDEGCDICIKQKGLFGGPCTFETKGQYISIRQCDACAIMVERRLEHHHHHH	not soluble
